Measured values: publication PMC9352680, “A comprehensive thermodynamic model for RNA binding by the Saccharomyces cerevisiae Pumilio protein PUF4”
Numbering of substitutions follows the chain as printed. Names may count otherwise.

T1: PUF4 RNA-binding domain (Saccharomyces cerevisiae, UniProt P25339 537-888)
T1 sequence: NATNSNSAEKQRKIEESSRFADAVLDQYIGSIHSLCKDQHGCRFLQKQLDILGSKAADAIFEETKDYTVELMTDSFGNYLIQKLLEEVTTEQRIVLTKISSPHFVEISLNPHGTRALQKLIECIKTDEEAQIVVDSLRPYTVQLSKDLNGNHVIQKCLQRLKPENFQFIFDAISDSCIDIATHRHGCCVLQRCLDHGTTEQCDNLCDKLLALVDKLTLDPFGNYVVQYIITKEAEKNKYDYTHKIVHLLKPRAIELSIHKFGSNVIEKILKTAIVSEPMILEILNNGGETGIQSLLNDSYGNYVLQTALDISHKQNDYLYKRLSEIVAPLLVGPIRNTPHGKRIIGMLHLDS

B1: Id_ii_S2_P4E.3_K4.2_C4.2_[C-2T]_[T-1A]_H4.2_A4.1_F4.1_T4.2_[G10A] (ssRNA)
RNA: UUUGAUUAAUAUGAUAUCGUUCUUUCUUAUAUAUAUUAAUUUCUUUCUCGAUAUCAUAUUAAUCUUU
B2: Id_ii_S2_P4E.3_K4.2_C4.2_[C-2A]_[T-1C]_H4.2_A4.1_F4.1_T4.2_[G10C]_[T11A] (ssRNA)
RNA: B1 RNA with U28A, A29C, A39C, U40A
B3: Id_ii_S2_P4E.3_K4.2_C4.2_[C-2A]_[T-1C]_H4.2_A4.1_F4.1_T4.2_[G10C]_[T11C] (ssRNA)
RNA: B1 RNA with U28A, A29C, A39C, U40C
B4: Id_ii_S2_P4E.3_K4.2_C4.2_[C-2T]_[T-1A]_H4.2_A4.1_F4.1_T4.2_[T11C] (ssRNA)
RNA: B1 RNA with A39G, U40C
B5: Id_ii_S2_P4E.3_K4.2_C4.2_[C-2A]_H4.2_A4.1_F4.1_T4.2_[G10C]_[T11C] (ssRNA)
RNA: B1 RNA with U28A, A29U, A39C, U40C
B6: Id_ii_S2_P4E.3_K4.2_C4.2_[T-1A]_H4.2_A4.1_F4.1_T4.2_[G10C]_[T11A] (ssRNA)
RNA: B1 RNA with U28C, A39C, U40A
B7: Id_ii_S2_P4E.3_K4.2_C4.2_[C-2T]_H4.2_A4.1_F4.1_T4.2_[G10T]_[T11G] (ssRNA)
RNA: B1 RNA with A29U, A39U, U40G
B8: Id_ii_S2_P4E.3_K4.2_C4.2_[T-1C]_H4.2_A4.1_F4.1_T4.2_[G10C]_[T11A] (ssRNA)
RNA: B1 RNA with U28C, A29C, A39C, U40A
B9: Id_ii_S2_P4E.3_K4.2_C4.2_[C-2A]_H4.2_A4.1_F4.1_T4.2_[G10C] (ssRNA)
RNA: B1 RNA with U28A, A29U, A39C
B10: Id_ii_S2_P4E.3_K4.2_C4.2_[T-1C]_H4.2_A4.1_F4.1_T4.2_[G10T]_[T11A] (ssRNA)
RNA: B1 RNA with U28C, A29C, A39U, U40A
B11: Id_ii_S2_P4E.3_K4.2_C4.2_[C-2A]_[T-1C]_H4.2_A4.1_F4.1_T4.2_[G10T]_[T11C] (ssRNA)
RNA: B1 RNA with U28A, A29C, A39U, U40C
B12: Id_ii_S2_P4E.3_K4.2_C4.2_[C-2A]_[T-1A]_H4.2_A4.1_F4.1_T4.2_[G10C]_[T11A] (ssRNA)
RNA: B1 RNA with U28A, A39C, U40A
B13: Id_ii_S2_P4E.3_K4.2_C4.2_[C-2A]_[T-1G]_H4.2_A4.1_F4.1_T4.2_[G10A]_[T11A] (ssRNA)
RNA: B1 RNA with U28A, A29G, U40A
B14: Id_ii_S2_P4E.3_K4.2_C4.2_[C-2A]_[T-1C]_H4.2_A4.1_F4.1_T4.2_[G10T]_[T11G] (ssRNA)
RNA: B1 RNA with U28A, A29C, A39U, U40G
B15: Id_ii_S2_P4E.3_K4.2_C4.2_[C-2A]_[T-1C]_H4.2_A4.1_F4.1_T4.2_[G10T] (ssRNA)
RNA: B1 RNA with U28A, A29C, A39U
B16: Id_ii_S2_P4E.3_K4.2_C4.2_[T-1A]_H4.2_A4.1_F4.1_T4.2_[G10C]_[T11C] (ssRNA)
RNA: B1 RNA with U28C, A39C, U40C
B17: Id_ii_S2_P4E.3_K4.2_C4.2_[T-1C]_H4.2_A4.1_F4.1_T4.2_[G10C]_[T11G] (ssRNA)
RNA: B1 RNA with U28C, A29C, A39C, U40G
B18: Id_ii_S2_P4E.3_K4.2_C4.2_[C-2A]_[T-1C]_H4.2_A4.1_F4.1_T4.2_[G10A] (ssRNA)
RNA: B1 RNA with U28A, A29C
B19: Id_ii_S2_P4E.3_K4.2_C4.2_[C-2T]_H4.2_A4.1_F4.1_T4.2_[G10T]_[T11A] (ssRNA)
RNA: B1 RNA with A29U, A39U, U40A
B20: Id_ii_S2_P4E.3_K4.2_C4.2_[C-2A]_[T-1A]_H4.2_A4.1_F4.1_T4.2_[G10C] (ssRNA)
RNA: B1 RNA with U28A, A39C
B21: Id_ii_S2_P4E.3_K4.2_C4.2_[C-2A]_[T-1A]_H4.2_A4.1_F4.1_T4.2_[G10A]_[T11A] (ssRNA)
RNA: B1 RNA with U28A, U40A
B22: Id_ii_S2_P4E.3_K4.2_C4.2_[C-2T]_H4.2_A4.1_F4.1_T4.2_[T11C] (ssRNA)
RNA: B1 RNA with A29U, A39G, U40C
B23: Id_ii_S2_P4E.3_K4.2_C4.2_[C-2A]_H4.2_A4.1_F4.1_T4.2_[G10A]_[T11C] (ssRNA)
RNA: B1 RNA with U28A, A29U, U40C
B24: Id_ii_S2_P4E.3_K4.2_C4.2_[C-2A]_[T-1C]_H4.2_A4.1_F4.1_T4.2_[G10A]_[T11A] (ssRNA)
RNA: B1 RNA with U28A, A29C, U40A
B25: Id_ii_S2_P4E.3_K4.2_C4.2_[C-2A]_[T-1A]_H4.2_A4.1_F4.1_T4.2_[G10A]_[T11G] (ssRNA)
RNA: B1 RNA with U28A, U40G
B26: Id_ii_S2_P4E.3_K4.2_C4.2_[C-2T]_H4.2_A4.1_F4.1_T4.2_[G10A]_[T11A] (ssRNA)
RNA: B1 RNA with A29U, U40A
B27: Id_ii_S2_P4E.3_K4.2_C4.2_[T-1G]_H4.2_A4.1_F4.1_T4.2_[G10A]_[T11A] (ssRNA)
RNA: B1 RNA with U28C, A29G, U40A
B28: Id_ii_S2_P4E.3_K4.2_C4.2_[T-1C]_H4.2_A4.1_F4.1_T4.2_[G10A] (ssRNA)
RNA: B1 RNA with U28C, A29C

Molecular target: T1, PUF4 RNA-binding domain
Assay: Mg; RNA-MaP; 20 mM Na-HEPES pH 7.4, 30 mM KOAc, 0.75 mM MgCl2, 0.1% Tween-20, 5% glycerol, 0.1 mg/mL BSA, 2 mM DTT; 25 C; 0.0125-409.6 nM protein
Conditions: tags: N-His6-TEV cleaved; C-SNAP kept, Cy3B-labelled; label: tethered on chip by stalled RNA polymerase

Binder | Kd [nM]
UCUCUUUGUCUUAUUGUCUCUU (ssRNA) [Ib_S1_P5E.1_K5.1_C5.1_H5.1_[A4C]_A5.1_F5.1_[A10G]_T5.1] | 840
B1 | 17
B2 | 16.8
B3 | 8.87
B4 | 10.2
B5 | 12.8
B6 | 16.3
B7 | 6.27
B8 | 9.95
B9 | 14.2
B10 | 17
B11 | 10.6
B12 | 160
B13 | 135
B14 | 135
B15 | 7.44
B16 | 10.3
B17 | 9.56
B18 | 14.7
B19 | 23.8
B20 | 35.9
B21 | 233
B22 | 5.53
B23 | 40.9
B24 | 21.1
B25 | 661
B26 | 141
B27 | 20.5
B28 | 7.32
